Test results published in patent publication US20250171562A1.

These binders were tested against mixture of three Der p 2 specific recombinant human IgE clones H10, H12, P4E (human) (UniProt P01854) (assay: RBL-SX38 IgE displacement, FACS).
Sequence of mixture of three Der p 2 specific recombinant human IgE clones H10, H12, P4E (human) (P01854 other isoform, or with tags, fused parts or gaps): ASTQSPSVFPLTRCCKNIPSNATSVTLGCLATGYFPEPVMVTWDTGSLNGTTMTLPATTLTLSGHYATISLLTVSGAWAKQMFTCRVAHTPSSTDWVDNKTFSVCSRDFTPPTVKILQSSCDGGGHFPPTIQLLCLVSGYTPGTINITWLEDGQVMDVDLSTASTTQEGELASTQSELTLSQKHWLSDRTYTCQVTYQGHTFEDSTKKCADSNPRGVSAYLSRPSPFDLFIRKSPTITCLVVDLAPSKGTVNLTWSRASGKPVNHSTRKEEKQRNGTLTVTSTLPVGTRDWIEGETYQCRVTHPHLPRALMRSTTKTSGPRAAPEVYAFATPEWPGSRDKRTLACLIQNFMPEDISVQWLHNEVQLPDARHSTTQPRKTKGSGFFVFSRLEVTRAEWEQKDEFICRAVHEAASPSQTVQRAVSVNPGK

Row | EC50 [nM] | Max effect/effect 1 µM [%] | Binder
1 | 44.5 | 85 | NIgG4F4A1(G4S)3 (Fc fusion) chain 1: DVQLQESGGGLVQAGGSLRLSCAVSGLSFSSMGWFRQPPGKEREFVAAISLYSGSTYYADSVKGRFTISSDNAKSTVYLQMNSLKPEDAAVYFCAADRQRTWSTFYASRQATYNYWGQGTQVTVTSGGGGSGGGGSGGGGSGPPCPPCPAPEFLGGPSVFLFPPKPKDTLMISRTPEVTCVVVDVSQEDPEVQFNWYVDGVEVHNAKTKPREEQFNSTYRVVSVLTVLHQDWLNGKEYKCKVSNKGLPSSIEKTISKAKGQPREPQVYTLPPCQEEMTKNQVSLWCLVKGFYPSDIAVEWESNGQPENNYKTTPPVLDSDGSFFLYSRLTVDKSRWQEGNVFSCSVMHEALHNHYTQKSLSLSLGK chain 2: EVQLLESGGGLVQPGGSLRLSCAASGFTFGNYDMAWVRQAPGKRPEWVSSIDTGGDITHYADSVKGRFTISRDNAKNTLYLQMNSLRPEDTAVYWCATDEEYALGPNEFDYYGQGTLVTVSSGGGGSGGGGSGGGGSGPPCPPCPAPEFLGGPSVFLFPPKPKDTLMISRTPEVTCVVVDVSQEDPEVQFNWYVDGVEVHNAKTKPREEQFNSTYRVVSVLTVLHQDWLNGKEYKCKVSNKGLPSSIEKTISKAKGQPREPQVCTLPPSQEEMTKNQVSLSCAVKGFYPSDIAVEWESNGQPENNYKTTPPVLDSDGSFFLVSRLTVDKSRWQEGNVFSCSVMHEALHNHYTQKSLSLSLGK
2 | 0.9 | 100 | CIgG4F4A1(G4S)1 (Fc fusion) chain 1: GPPCPPCPAPEFLGGPSVFLFPPKPKDTLMISRTPEVTCVVVDVSQEDPEVQFNWYVDGVEVHNAKTKPREEQFNSTYRVVSVLTVLHQDWLNGKEYKCKVSNKGLPSSIEKTISKAKGQPREPQVYTLPPCQEEMTKNQVSLWCLVKGFYPSDIAVEWESNGQPENNYKTTPPVLDSDGSFFLYSRLTVDKSRWQEGNVFSCSVMHEALHNHYTQKSLSLSLGKGGGGSDVQLQESGGGLVQAGGSLRLSCAVSGLSFSSMGWFRQPPGKEREFVAAISLYSGSTYYADSVKGRFTISSDNAKSTVYLQMNSLKPEDAAVYFCAADRQRTWSTFYASRQATYNYWGQGTQVTVTS chain 2: GPPCPPCPAPEFLGGPSVFLFPPKPKDTLMISRTPEVTCVVVDVSQEDPEVQFNWYVDGVEVHNAKTKPREEQFNSTYRVVSVLTVLHQDWLNGKEYKCKVSNKGLPSSIEKTISKAKGQPREPQVCTLPPSQEEMTKNQVSLSCAVKGFYPSDIAVEWESNGQPENNYKTTPPVLDSDGSFFLVSRLTVDKSRWQEGNVFSCSVMHEALHNHYTQKSLSLSLGKGGGGSEVQLLESGGGLVQPGGSLRLSCAASGFTFGNYDMAWVRQAPGKRPEWVSSIDTGGDITHYADSVKGRFTISRDNAKNTLYLQMNSLRPEDTAVYWCATDEEYALGPNEFDYYGQGTLVTVSS
3 | 1.2 | 99 | CIgG4F4A1(RS) (Fc fusion) chain 1: GPPCPPCPAPEFLGGPSVFLFPPKPKDTLMISRTPEVTCVVVDVSQEDPEVQFNWYVDGVEVHNAKTKPREEQFNSTYRVVSVLTVLHQDWLNGKEYKCKVSNKGLPSSIEKTISKAKGQPREPQVYTLPPCQEEMTKNQVSLWCLVKGFYPSDIAVEWESNGQPENNYKTTPPVLDSDGSFFLYSRLTVDKSRWQEGNVFSCSVMHEALHNHYTQKSLSLSLGKRSDVQLQESGGGLVQAGGSLRLSCAVSGLSFSSMGWFRQPPGKEREFVAAISLYSGSTYYADSVKGRFTISSDNAKSTVYLQMNSLKPEDAAVYFCAADRQRTWSTFYASRQATYNYWGQGTQVTVTS chain 2: GPPCPPCPAPEFLGGPSVFLFPPKPKDTLMISRTPEVTCVVVDVSQEDPEVQFNWYVDGVEVHNAKTKPREEQFNSTYRVVSVLTVLHQDWLNGKEYKCKVSNKGLPSSIEKTISKAKGQPREPQVCTLPPSQEEMTKNQVSLSCAVKGFYPSDIAVEWESNGQPENNYKTTPPVLDSDGSFFLVSRLTVDKSRWQEGNVFSCSVMHEALHNHYTQKSLSLSLGKRSEVQLLESGGGLVQPGGSLRLSCAASGFTFGNYDMAWVRQAPGKRPEWVSSIDTGGDITHYADSVKGRFTISRDNAKNTLYLQMNSLRPEDTAVYWCATDEEYALGPNEFDYYGQGTLVTVSS
4 | 1.2 | 97 | CIgG4F4A1(G4S)3 (Fc fusion) chain 1: GPPCPPCPAPEFLGGPSVFLFPPKPKDTLMISRTPEVTCVVVDVSQEDPEVQFNWYVDGVEVHNAKTKPREEQFNSTYRVVSVLTVLHQDWLNGKEYKCKVSNKGLPSSIEKTISKAKGQPREPQVYTLPPCQEEMTKNQVSLWCLVKGFYPSDIAVEWESNGQPENNYKTTPPVLDSDGSFFLYSRLTVDKSRWQEGNVFSCSVMHEALHNHYTQKSLSLSLGKGGGGSGGGGSGGGGSDVQLQESGGGLVQAGGSLRLSCAVSGLSFSSMGWFRQPPGKEREFVAAISLYSGSTYYADSVKGRFTISSDNAKSTVYLQMNSLKPEDAAVYFCAADRQRTWSTFYASRQATYNYWGQGTQVTVTS chain 2: GPPCPPCPAPEFLGGPSVFLFPPKPKDTLMISRTPEVTCVVVDVSQEDPEVQFNWYVDGVEVHNAKTKPREEQFNSTYRVVSVLTVLHQDWLNGKEYKCKVSNKGLPSSIEKTISKAKGQPREPQVCTLPPSQEEMTKNQVSLSCAVKGFYPSDIAVEWESNGQPENNYKTTPPVLDSDGSFFLVSRLTVDKSRWQEGNVFSCSVMHEALHNHYTQKSLSLSLGKGGGGSGGGGSGGGGSEVQLLESGGGLVQPGGSLRLSCAASGFTFGNYDMAWVRQAPGKRPEWVSSIDTGGDITHYADSVKGRFTISRDNAKNTLYLQMNSLRPEDTAVYWCATDEEYALGPNEFDYYGQGTLVTVSS
5 | 21.6 | 100 | NIgG4F4A1(G4S)1 (Fc fusion) chain 1: DVQLQESGGGLVQAGGSLRLSCAVSGLSFSSMGWFRQPPGKEREFVAAISLYSGSTYYADSVKGRFTISSDNAKSTVYLQMNSLKPEDAAVYFCAADRQRTWSTFYASRQATYNYWGQGTQVTVTSGGGGSGPPCPPCPAPEFLGGPSVFLFPPKPKDTLMISRTPEVTCVVVDVSQEDPEVQFNWYVDGVEVHNAKTKPREEQFNSTYRVVSVLTVLHQDWLNGKEYKCKVSNKGLPSSIEKTISKAKGQPREPQVYTLPPCQEEMTKNQVSLWCLVKGFYPSDIAVEWESNGQPENNYKTTPPVLDSDGSFFLYSRLTVDKSRWQEGNVFSCSVMHEALHNHYTQKSLSLSLGK chain 2: EVQLLESGGGLVQPGGSLRLSCAASGFTFGNYDMAWVRQAPGKRPEWVSSIDTGGDITHYADSVKGRFTISRDNAKNTLYLQMNSLRPEDTAVYWCATDEEYALGPNEFDYYGQGTLVTVSSGGGGSGPPCPPCPAPEFLGGPSVFLFPPKPKDTLMISRTPEVTCVVVDVSQEDPEVQFNWYVDGVEVHNAKTKPREEQFNSTYRVVSVLTVLHQDWLNGKEYKCKVSNKGLPSSIEKTISKAKGQPREPQVCTLPPSQEEMTKNQVSLSCAVKGFYPSDIAVEWESNGQPENNYKTTPPVLDSDGSFFLVSRLTVDKSRWQEGNVFSCSVMHEALHNHYTQKSLSLSLGK
6 | 331 | 74 | NIgG4F4A1(RS) (Fc fusion) chain 1: DVQLQESGGGLVQAGGSLRLSCAVSGLSFSSMGWFRQPPGKEREFVAAISLYSGSTYYADSVKGRFTISSDNAKSTVYLQMNSLKPEDAAVYFCAADRQRTWSTFYASRQATYNYWGQGTQVTVTSRSGPPCPPCPAPEFLGGPSVFLFPPKPKDTLMISRTPEVTCVVVDVSQEDPEVQFNWYVDGVEVHNAKTKPREEQFNSTYRVVSVLTVLHQDWLNGKEYKCKVSNKGLPSSIEKTISKAKGQPREPQVYTLPPCQEEMTKNQVSLWCLVKGFYPSDIAVEWESNGQPENNYKTTPPVLDSDGSFFLYSRLTVDKSRWQEGNVFSCSVMHEALHNHYTQKSLSLSLGK chain 2: EVQLLESGGGLVQPGGSLRLSCAASGFTFGNYDMAWVRQAPGKRPEWVSSIDTGGDITHYADSVKGRFTISRDNAKNTLYLQMNSLRPEDTAVYWCATDEEYALGPNEFDYYGQGTLVTVSSRSGPPCPPCPAPEFLGGPSVFLFPPKPKDTLMISRTPEVTCVVVDVSQEDPEVQFNWYVDGVEVHNAKTKPREEQFNSTYRVVSVLTVLHQDWLNGKEYKCKVSNKGLPSSIEKTISKAKGQPREPQVCTLPPSQEEMTKNQVSLSCAVKGFYPSDIAVEWESNGQPENNYKTTPPVLDSDGSFFLVSRLTVDKSRWQEGNVFSCSVMHEALHNHYTQKSLSLSLGK
7 | 21.1 | 97 | NIgG4F4A1(G4S)2 (Fc fusion) chain 1: DVQLQESGGGLVQAGGSLRLSCAVSGLSFSSMGWFRQPPGKEREFVAAISLYSGSTYYADSVKGRFTISSDNAKSTVYLQMNSLKPEDAAVYFCAADRQRTWSTFYASRQATYNYWGQGTQVTVTSGGGGSGGGGSGPPCPPCPAPEFLGGPSVFLFPPKPKDTLMISRTPEVTCVVVDVSQEDPEVQFNWYVDGVEVHNAKTKPREEQFNSTYRVVSVLTVLHQDWLNGKEYKCKVSNKGLPSSIEKTISKAKGQPREPQVYTLPPCQEEMTKNQVSLWCLVKGFYPSDIAVEWESNGQPENNYKTTPPVLDSDGSFFLYSRLTVDKSRWQEGNVFSCSVMHEALHNHYTQKSLSLSLGK chain 2: EVQLLESGGGLVQPGGSLRLSCAASGFTFGNYDMAWVRQAPGKRPEWVSSIDTGGDITHYADSVKGRFTISRDNAKNTLYLQMNSLRPEDTAVYWCATDEEYALGPNEFDYYGQGTLVTVSSGGGGSGGGGSGPPCPPCPAPEFLGGPSVFLFPPKPKDTLMISRTPEVTCVVVDVSQEDPEVQFNWYVDGVEVHNAKTKPREEQFNSTYRVVSVLTVLHQDWLNGKEYKCKVSNKGLPSSIEKTISKAKGQPREPQVCTLPPSQEEMTKNQVSLSCAVKGFYPSDIAVEWESNGQPENNYKTTPPVLDSDGSFFLVSRLTVDKSRWQEGNVFSCSVMHEALHNHYTQKSLSLSLGK
8 | 0.9 | 100 | CIgG4F4A1(G4S)2 (Fc fusion) chain 1: GPPCPPCPAPEFLGGPSVFLFPPKPKDTLMISRTPEVTCVVVDVSQEDPEVQFNWYVDGVEVHNAKTKPREEQFNSTYRVVSVLTVLHQDWLNGKEYKCKVSNKGLPSSIEKTISKAKGQPREPQVYTLPPCQEEMTKNQVSLWCLVKGFYPSDIAVEWESNGQPENNYKTTPPVLDSDGSFFLYSRLTVDKSRWQEGNVFSCSVMHEALHNHYTQKSLSLSLGKGGGGSGGGGSDVQLQESGGGLVQAGGSLRLSCAVSGLSFSSMGWFRQPPGKEREFVAAISLYSGSTYYADSVKGRFTISSDNAKSTVYLQMNSLKPEDAAVYFCAADRQRTWSTFYASRQATYNYWGQGTQVTVTS chain 2: GPPCPPCPAPEFLGGPSVFLFPPKPKDTLMISRTPEVTCVVVDVSQEDPEVQFNWYVDGVEVHNAKTKPREEQFNSTYRVVSVLTVLHQDWLNGKEYKCKVSNKGLPSSIEKTISKAKGQPREPQVCTLPPSQEEMTKNQVSLSCAVKGFYPSDIAVEWESNGQPENNYKTTPPVLDSDGSFFLVSRLTVDKSRWQEGNVFSCSVMHEALHNHYTQKSLSLSLGKGGGGSGGGGSEVQLLESGGGLVQPGGSLRLSCAASGFTFGNYDMAWVRQAPGKRPEWVSSIDTGGDITHYADSVKGRFTISRDNAKNTLYLQMNSLRPEDTAVYWCATDEEYALGPNEFDYYGQGTLVTVSS
